Target: T1, recombinant His-p53 (UniProt P04637 1-393)
T1 construct: p53 from pET15b-p53 (Addgene plasmid 24859); also called pET15b-p53; source: recombinant, pET15b-p53 (Addgene)
Assay: pull-down; GST pulldown: 100 μg recombinant GST-PPIL2 protein with 100 μg recombinant His-p53 and MagneGST glutathione beads overnight at 4°C; washes with TENT buffer (1% Triton X-100, 140 mM NaCl, 2 mM EDTA, 20 mM Tris pH 8.0)
Conditions: both partners purified

T1 sequence (P04637 whole entry): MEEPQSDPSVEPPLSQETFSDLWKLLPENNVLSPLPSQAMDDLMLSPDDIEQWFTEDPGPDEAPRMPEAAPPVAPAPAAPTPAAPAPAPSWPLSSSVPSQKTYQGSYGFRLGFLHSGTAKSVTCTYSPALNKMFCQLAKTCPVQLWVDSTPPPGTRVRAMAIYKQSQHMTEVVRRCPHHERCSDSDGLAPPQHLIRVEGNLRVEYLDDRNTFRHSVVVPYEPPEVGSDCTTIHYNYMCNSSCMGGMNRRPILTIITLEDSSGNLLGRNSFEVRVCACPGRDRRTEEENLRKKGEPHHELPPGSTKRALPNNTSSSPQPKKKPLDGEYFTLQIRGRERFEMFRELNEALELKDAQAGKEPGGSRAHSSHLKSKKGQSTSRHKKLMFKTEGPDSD

- binding result: binds
B1: recombinant GST-PPIL2-U-box (domain or fragment, UniProt Q13356 1-190, looked up)
chain: MGKRQHQKDKMYITCAEYTHFYGGKKPDLPQTNFRRLPFDHCSLSLQPFVYPVCTPDGIVFDLLNIVPWLKKYGTNPSNGEKLDGRSLIKLNFSKNSEGKYHCPVLFTVFTNNTHIVAVRTTGNVYAYEAVEQLNIKAKNFRDLLTDEPFSRQDIITLQDPTNLDKFNVSNFYHVKNNMKIIDPDEEKAK
notes: peptidylprolyl isomerase-like 2 (PPIL2), U-box domain construct, residues 1-190; the tie of 1-190 to the U-box goes by the order of the list; also called GST-PPIL2 (1-190); U-box domain of PPIL2; source: recombinant, prokaryotic expression vector pGEX6p-3
